Data published in patent publication US20140314711A1.

B1: IL-22 Fc construct 18 (huIgG1, linker …, N297G) (Fc fusion, not shown: a dimerising Fc or GST)
chain: APISSHCRLDKSNFQQPYITNRTFMLAKEASLADNNTDVRLIGEKLFHGVSMSERCYLMKQVLNFTLEEVLFPQSDRFQPYMQEVVPFLARLSNRLSTCHIEGDDLHIQRNVQKLKDTVKKLGESGEIKAIGELDLLFMSLRNACIKKVEPKSSDKTHTCPPCP
B2: IL-22 Fc construct 24 (huIgG1, linker …, produced in E. coli) (Fc fusion, not shown: a dimerising Fc or GST)
chain: APISSHCRLDKSNFQQPYITNRTFMLAKEASLADNNTDVRLIGEKLFHGVSMSERCYLMKQVLNFTLEEVLFPQSDRFQPYMQEVVPFLARLSNRLSTCHIEGDDLHIQRNVQKLKDTVKKLGESGEIKAIGELDLLFMSLRNACIEPKSSDKTHTCPPCP
B3: IL-22 Fc construct 13 (huIgG1, linker …) (Fc fusion, not shown: a dimerising Fc or GST)
chain: APISSHCRLDKSNFQQPYITNRTFMLAKEASLADNNTDVRLIGEKLFHGVSMSERCYLMKQVLNFTLEEVLFPQSDRFQPYMQEVVPFLARLSNRLSTCHIEGDDLHIQRNVQKLKDTVKKLGESGEIKAIGELDLLFMSLRNACIKVDKKVEPKSSDKTHTCPPCP
B4: IL-22 Fc construct 12 (huIgG1, linker …) (Fc fusion, not shown: a dimerising Fc or GST)
chain: APISSHCRLDKSNFQQPYITNRTFMLAKEASLADNNTDVRLIGEKLFHGVSMSERCYLMKQVLNFTLEEVLFPQSDRFQPYMQEVVPFLARLSNRLSTCHIEGDDLHIQRNVQKLKDTVKKLGESGEIKAIGELDLLFMSLRNACIDKKVEPKSSDKTHTCPPCP

Target: T1, human IL-22 receptor complex IL22R1 and IL10R2 (human) (UniProt Q8N6P7)
T1 sequence (looked up) 1: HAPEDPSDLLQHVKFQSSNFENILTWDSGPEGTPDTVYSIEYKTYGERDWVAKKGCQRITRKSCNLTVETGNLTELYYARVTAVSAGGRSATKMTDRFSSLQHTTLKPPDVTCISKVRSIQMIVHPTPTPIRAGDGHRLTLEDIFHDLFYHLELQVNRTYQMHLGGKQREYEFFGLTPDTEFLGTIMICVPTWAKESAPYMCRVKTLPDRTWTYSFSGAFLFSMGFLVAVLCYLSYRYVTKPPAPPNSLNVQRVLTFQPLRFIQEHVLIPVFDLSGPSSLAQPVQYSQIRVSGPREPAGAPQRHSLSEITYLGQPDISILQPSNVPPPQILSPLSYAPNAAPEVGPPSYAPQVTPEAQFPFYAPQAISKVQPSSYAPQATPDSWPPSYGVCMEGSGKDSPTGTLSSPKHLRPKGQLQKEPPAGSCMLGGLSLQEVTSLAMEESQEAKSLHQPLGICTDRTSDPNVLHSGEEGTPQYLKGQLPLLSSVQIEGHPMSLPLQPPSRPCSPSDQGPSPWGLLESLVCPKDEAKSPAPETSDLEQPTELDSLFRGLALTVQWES
T1 sequence (looked up) 2: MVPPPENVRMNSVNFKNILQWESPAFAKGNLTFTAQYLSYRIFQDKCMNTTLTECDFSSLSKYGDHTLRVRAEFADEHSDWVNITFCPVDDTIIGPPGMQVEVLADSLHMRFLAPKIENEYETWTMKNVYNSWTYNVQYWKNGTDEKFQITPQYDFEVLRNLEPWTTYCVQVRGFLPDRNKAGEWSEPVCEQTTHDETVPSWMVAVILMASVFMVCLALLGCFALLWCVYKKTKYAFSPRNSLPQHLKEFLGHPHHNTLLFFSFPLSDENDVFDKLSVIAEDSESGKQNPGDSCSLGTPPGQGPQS
Experiment: cell-based or functional assay

How did the EC50 (STAT3 luciferase reporter assay) turn out when B1 was run?
The EC50 (STAT3 luciferase reporter assay) was 20 pM.

Which EC50 (STAT3 luciferase reporter assay) does the source give for B2 here?
Its EC50 (STAT3 luciferase reporter assay) is 16 pM.

Which EC50 (STAT3 luciferase reporter assay) does the source give for B3 here?
Its EC50 (STAT3 luciferase reporter assay) is 25 pM.

B4 was tested. Which EC50 (STAT3 luciferase reporter assay) did it give?
The EC50 (STAT3 luciferase reporter assay) was 25 pM.
